For data set [1], the target named is T1, hIRP-1r (iron regulatory protein 1) (human, UniProt P21399 1-889).
T1 sequence: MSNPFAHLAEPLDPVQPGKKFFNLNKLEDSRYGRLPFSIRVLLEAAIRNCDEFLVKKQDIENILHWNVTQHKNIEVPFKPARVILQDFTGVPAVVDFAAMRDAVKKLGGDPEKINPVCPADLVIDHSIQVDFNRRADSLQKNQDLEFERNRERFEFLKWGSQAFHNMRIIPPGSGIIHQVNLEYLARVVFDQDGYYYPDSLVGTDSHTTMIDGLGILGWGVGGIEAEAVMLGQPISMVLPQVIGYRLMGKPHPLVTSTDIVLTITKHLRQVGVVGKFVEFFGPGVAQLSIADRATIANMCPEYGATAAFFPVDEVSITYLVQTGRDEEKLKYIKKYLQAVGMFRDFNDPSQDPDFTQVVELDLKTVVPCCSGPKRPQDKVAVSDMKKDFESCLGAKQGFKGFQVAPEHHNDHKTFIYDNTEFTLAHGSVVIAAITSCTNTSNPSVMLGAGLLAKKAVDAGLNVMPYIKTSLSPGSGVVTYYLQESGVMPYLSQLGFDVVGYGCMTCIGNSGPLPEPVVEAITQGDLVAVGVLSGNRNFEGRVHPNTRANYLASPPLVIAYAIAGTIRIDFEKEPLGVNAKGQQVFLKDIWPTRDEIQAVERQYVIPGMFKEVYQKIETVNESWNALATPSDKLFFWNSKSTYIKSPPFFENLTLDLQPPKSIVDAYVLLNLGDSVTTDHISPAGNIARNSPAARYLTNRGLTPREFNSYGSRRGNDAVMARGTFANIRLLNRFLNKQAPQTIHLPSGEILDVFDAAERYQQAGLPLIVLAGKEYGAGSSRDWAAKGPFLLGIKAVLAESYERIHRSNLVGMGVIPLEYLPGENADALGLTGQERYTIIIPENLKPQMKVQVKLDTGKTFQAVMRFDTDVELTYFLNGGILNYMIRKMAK
Kind of data set: EMSA; 5 ug heparin; REMSA: 20 uL, 0.2 ng 32P-RNA, 1 ug hIRP-1r or 50 ug T. vaginalis extract, 5 ug heparin, 10 min at 25 C, 6% native gel; buffer, salt and pH not given; Northwestern conditions not given. Conditions: protein: recombinant; (pGEX plasmid); label: 32P (alpha-32P UTP); hairpin. Background: In EMSA bound probe runs differently from free probe, usually more slowly.

For data set [2], the target named is T2, TvACTN-3r (alpha-actinin 3) (Trichomonas vaginalis, UniProt X5FVA1 1-1129).
T2 sequence: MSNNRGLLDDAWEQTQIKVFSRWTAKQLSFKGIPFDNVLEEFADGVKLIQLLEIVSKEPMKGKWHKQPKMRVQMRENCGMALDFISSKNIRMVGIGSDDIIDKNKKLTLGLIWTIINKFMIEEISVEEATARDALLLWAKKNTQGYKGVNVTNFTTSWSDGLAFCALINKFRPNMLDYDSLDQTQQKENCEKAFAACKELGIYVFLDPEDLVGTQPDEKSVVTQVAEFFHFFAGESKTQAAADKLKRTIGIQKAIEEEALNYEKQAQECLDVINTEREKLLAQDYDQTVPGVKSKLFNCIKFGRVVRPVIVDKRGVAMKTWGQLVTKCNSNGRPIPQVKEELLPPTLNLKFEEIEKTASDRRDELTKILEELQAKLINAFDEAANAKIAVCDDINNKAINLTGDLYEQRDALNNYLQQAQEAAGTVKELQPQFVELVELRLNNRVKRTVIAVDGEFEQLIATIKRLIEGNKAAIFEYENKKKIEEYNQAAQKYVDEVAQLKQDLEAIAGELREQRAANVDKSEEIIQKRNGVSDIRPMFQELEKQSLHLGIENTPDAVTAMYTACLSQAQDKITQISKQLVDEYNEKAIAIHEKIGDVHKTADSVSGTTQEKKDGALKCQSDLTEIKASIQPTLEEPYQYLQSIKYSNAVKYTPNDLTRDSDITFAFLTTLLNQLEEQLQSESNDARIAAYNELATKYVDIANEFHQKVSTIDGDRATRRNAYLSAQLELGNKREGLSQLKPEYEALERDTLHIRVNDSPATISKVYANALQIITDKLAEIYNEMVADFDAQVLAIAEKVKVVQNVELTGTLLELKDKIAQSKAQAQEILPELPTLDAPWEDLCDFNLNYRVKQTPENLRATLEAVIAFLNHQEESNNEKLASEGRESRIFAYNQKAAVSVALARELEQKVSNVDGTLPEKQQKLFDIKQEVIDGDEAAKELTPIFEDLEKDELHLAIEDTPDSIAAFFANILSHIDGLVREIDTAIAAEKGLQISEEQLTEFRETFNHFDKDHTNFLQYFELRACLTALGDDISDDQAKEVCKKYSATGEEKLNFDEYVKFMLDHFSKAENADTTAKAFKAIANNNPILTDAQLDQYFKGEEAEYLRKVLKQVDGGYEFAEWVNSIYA
The data set is described as follows: Northwestern blot; REMSA: 20 uL, 0.2 ng 32P-RNA, 1 ug hIRP-1r or 50 ug T. vaginalis extract, 5 ug heparin, 10 min at 25 C, 6% native gel; buffer, salt and pH not given; Northwestern conditions not given. Conditions: protein: recombinant; label: 32P (alpha-32P UTP); hairpin.

Turning to GGGACGUAUUUAAUUGAUUGCG (structured_RNA) [IRE-tvcp12 (wild type)], the binding result in data set [1] and in data set [2] was “binds” throughout.

Source of the values: publication PMC10143249, “The Non-Canonical Iron-Responsive Element of IRE-tvcp12 Hairpin Structure at the 3′-UTR of Trichomonas vaginalis TvCP12 mRNA That Binds TvHSP70 and TvACTN-3 Can Regulate mRNA Stability and Amount of P”.
